Data: US8338155B2, “Modified mevalonate kinase with reduced feedback inhibition” (DSM IP Assets B.V., priority 2004, dated 2012)

Columns and labels:
[1] = test system: Paracoccus zeaxanthinifaciens strain R114; assay: Coenzyme Q10 production in fed-batch cultivation of recombinant strains; type: cell-based; conditions: 70 h, strain R114 with plasmid pBBR-K-mev-op-(S. cerevisiae mvk-N66K/I152M)-PcrtE-ddsAwt vs pBBR-K-mev-op-(S. cerevisiae mvk)-PcrtE-ddsAwt
Description: To test the in vivo effect of mutation N66K/I152M on the production of coenzyme Q10, the DNA encoding S. cerevisiae mevalonate kinase mutant N66K/1152M (SEQ ID NO:5) is introduced into Paracoccus zeaxanthinifaciens and compared to the CoQ10 production in P. zeaxanthinifaciens carrying the DNA encoding the wild-type S. cerevisiae mevalonate kinase (SEQ ID NO:2).
Plasmids according to pBBR-K-mev-op-R114-PcrtE-ddsAwt, are constructed wherein the mevalonate operon, including its promoter region, from P. zeaxanthinifaciens R114 (see above) is replaced by either the DNA encoding the wild-type S. cerevisiae mevalonate kinase (SEQ ID NO:2) resulting in pBBR-K-mev-op-(S. cerevisiae mvk)-PcrtE-ddsAwt or the DNA encoding S. cerevisiae mevalonate kinase mutant N66K/1152M (SEQ ID NO:5) resulting in pBBR-K-mev-op-(S. cerevisiae mvk-N66K/I152M)-PcrtE-ddsAwt. […]
Coenzyme Q10 production is tested in fed-batch cultivations of P. zeaxanthinifaciens strains R114/pBBR-K-mev-opR114-PcrtE-ddsAwt, R114/pBBR-K-mev-op-(S. cerevisiae mvk)-PcrtE-ddsAwt and R114/pBBR-K-mev-op-(S. cerevisiae mvk-N66K/1152M)-PcrtE-ddsAwt. […] The precultures are incubated at 28° C. with shaking at 250 rpm for 28 h, after which time the optical density at 660 nm (OD660) is between 14 and 22 absorbance units, depending on the strain used. […]

[2] = test system: Saccharomyces cerevisiae mevalonate kinase; assay: Inhibition of mevalonate kinase activity by the feedback inhibitor FPP: feedback resistance; type: biochemical; conditions: 1 μM FPP; % resistance=100·((d/c)−(b/a))/(1−(b/a)) relative to wild-type
Protocol: “Feedback resistance” as used herein may be any increase in resistance to “feedback inhibition” (as defined above). Feedback resistance can be analyzed in different ways known to those skilled in the art. An appropriate example of such an analysis is shortly described herein: mevalonate kinase activity is measured in an activity assay at non-saturating concentrations of for instance ATP (or of another phosphate donor) and mevalonate (or mevalonate analogue), i.e., at for instance ATP (or phosphate donor) and mevalonate (or mevalonate analogue) concentrations around which the reaction rate is sensitive to changes of these substrate concentrations, e.g., at concentrations around the respective Km values of the enzyme under investigation for these substrates. The activities of both wild-type mevalonate kinase and of a variant/mutant of this enzyme are measured under otherwise identical conditions both in the absence and presence of a relevant concentration of a feedback inhibitor, i.e., at a concentration of feedback inhibitor affording significant inhibition of the wild-type mevalonate kinase. If the extent of inhibition (e.g., % inhibition) by the feedback inhibitor is lower for the mutant than for the wild-type enzyme, then the mutant is feedback resistant in the context of the present patent application. Once a feedback resistant variant/mutant has been identified, the same procedure as described above may be applied to identify further improved mutants, i.e., mutants that are even more feedback resistant. Feedback resistance (%) is calculated as follows: if (a) and (b) are the measured mevalonate kinase activities of the wild-type enzyme in the absence and presence, respectively, of the feedback inhibitor (e.g., FPP), and if (c) and (d) are the measured mevalonate kinase activities of the mutant enzyme in the absence and presence, respectively, of the same feedback inhibitor, then % feedback resistance is: % resistance=100·((d/c)−(b/a))/(1−(b/a))
(§1) For preparing mevalonate as substrate, 130 mg of DL-mevalonate lactone (FLUKA Chemie AG, Buchs, Switzerland) were dissolved in 5.5 ml of 0.2 M KOH and incubated for 15 min at 50° C. The solution was then adjusted to pH 7.0 by addition of 0.1 M HCl at room temperature (RT). Except if stated otherwise, the assay mixture consisted of 100 mM K2BPO/KH2PO4 (pH 7.0), 1 mM ATP, 2 mM MgCl2, 1 mM mevalonate, 0.5 mM phosphoenolpyruvate (PEP), 0.32 mM NADH, 20 U/ml pyruvate kinase and 27 U/ml lactate dehydrogenase (Sigma-Aldrich, St. Louis, Mo., USA). Inhibition was tested by adding 1 μM FPP.
(§2) Purification of His6-tagged mevalonate kinase and of His6-tagged mevalonate kinase mutant enzymes was done with Ni-NTA chromatography using the QIAexpress system/reagents of Qiagen. Upon addition of purified (His6-tagged) mevalonate kinase, enzymatic reaction reflected by consumption of NADH was followed by photometric measurement at 340 nm. One unit (1 U) of mevalonate kinase activity catalyzes the phosphorylation of 1 μmol of mevalonate per min.
(§3) Preparation of Mevalonate and Activity Measurement was Exactly Performed as Described in Example 1. 1 μM FPP was used for inhibition assays performed with the Saccharomyces cerevisiae mevalonate kinase wild-type enzyme and its mutants.
Feedback resistance (%) was calculated according to the following formula: % resistance=100·((d/c)−(b/a))/(1−(b/a)) wherein (a) and (b) refer to the measured mevalonate kinase activities of the wild-type enzyme in the absence and presence, respectively, and (c) and (d) refer to the measured mevalonate kinase activities of the mutant enzyme in the absence and presence, respectively, of FPP. The results are shown in Tab. 1, wherein WT represents the non-mutated mevalonate kinase containing a His6-tag (SEQ ID NO:3).

[3] = test system: Saccharomyces cerevisiae mevalonate kinase; assay: Mevalonate kinase activity assay (NADH consumption, photometric at 340 nm): specific activity; type: biochemical; conditions: purified His6-tagged enzyme; WT = non-mutated His6-tagged mevalonate kinase
Description: Methods for measuring specific activity are known to the person skilled in the art. The specific activity may for instance be determined via measuring the consumption of NADH. Suitable conditions for such measurement may be those as e.g. outlined in Example 1 except that, typically, saturating substrate concentrations are used or, in the case of enzyme inhibition at high substrate concentrations, at substrate concentrations that provide maximal activity under the particular experimental conditions.
as §1, §2, §3

B1: N66K, I152M: Saccharomyces cerevisiae mevalonate kinase mutant with substitutions N66K and I152M (encoding DNA SEQ ID NO:5) (protein, listed as Saccharomyces cerevisiae)
chain: MSLPFLTSAPGKVIIFGEHSAVYNKPAVAASVSALRTYLLISESSAPDTIELDFPDISFNHKWSIKDFNAITEDQVNSQKLAKAQQATDGLSQELVSLLDPLLAQLSESFHYHAAFCFLYMFVCLCPHAKNIKFSLKSTLPIGAGLGSSASMSVSLALAMAYLGGLIGSNDLEKLSENDKHIVNQWAFIGEKCIHGTPSGIDNAVATYGNALLFEKDSHNGTINTNNFKFLDDFPAIPMILTYTRIPRSTKDLVARVRVLVTEKFPEVMKPILDAMGECALQGLEIMTKLSKCKGTDDEAVETNNELYEQLLELIRINHGLLVSIGVSHPGLELIKNLSDDLRIGSTKLTGAGGGGCSLTLLRRDITQEQIDSFKKKLQDDFSYETFETDLGGTGCCLLSAKNLNKDLKIKSLVFQLFENKTTTKQQIDDLLLPGNTNLPWTS
[1]
  final concentration of coenzyme Q10 produced, higher than strain carrying wild-type S. cerevisiae mvk: at least 5%
[2]
  Feedback resistance (%): 67%
[3]
  Specific activity (% of wild-type): 148 % of wild-type
